{"source": "patent US11708423B2", "about": "“Chimeric engulfment receptor molecules and methods of use” (CERO THERAPEUTICS, INC., priority 2017, dated 2023)", "molecules": {"B1": {"name": "CER117: Tim4 binding and transmembrane domains, TLR8 primary and TRAF6 secondary signaling domains; SEQ ID NO:144 (protein)", "chain": "MSKGLLLLWLVTELWWLYLTPAASEDTIIGFLGQPVTLPCHYLSWSQSRNSMCWGKGSCPNSKCNAELLRTDGTRIISRKSTKYTLLGKVQFGEVSLTISNTNRGDSGVYCCRIEVPGWFNDVKKNVRLELRRATTTKKPTTTTRPTTTPYVTTTTPELLPTTVMTTSVLPTTTPPQTLATTAFSTAVTTCPSTTPGSFSQETTKGSAFTTESETLPASNHSQRSMMTISTDIAVLRPTGSNPGILPSTSQLTTQKTTLTTSESLQKTTKSHQINSRQTILIIACCVGFVLMVLLFLAFLHHLFYWDVWFIYNVCLAKVKGYRSLSTSQTFYDAYISYDTKDASVTDWVINELRYHLEESRDKNVLLCLEERDWDPGLAIIDNLMQSINQSKKTVFVLTKKYAKSWNFKTAFYLALQRLMDENMDVIIFILLEPVLQHSQYLRLRQRICKSSILQWPDNPKAEGLFWQTLRNVVLTENDSRYNNMYVDSIKQYMSLLNCENSCGSSQSESDCCVAMASSCSAVTKDDSVGGTASTGNLSSSFMEEIQGYDVEFDPPLESKYECPICLMALREAVQTPCGHRFCKACIIKSIRDAGHKCPVDNEILLENQLFPDNFAKREILSLMVKCPNEGCLHKMELRHLEDHQAHCEFALMDCPQCQRPFQKFHINIHILKDCPRRQVSCDNCAASMAFEDKEIHDQNCPLANVICEYCNTILIREQMPNHYDLDCPTAPIPCTFSTFGCHEKMQRNHLARHLQENTQSHMRMLA", "modifications": "CER117 protein"}}, "key": {"[1]": {"system": "ALK+A549 cells", "test": "Phagocytosis of ALK inhibitor treated A549 ALK+ cells by CER T cells (fluorescent microscopy)", "assay_type": "cell-based", "details": "12 hours, CD4 T cells", "excerpt": "An ELM4-ALK translocation was introduced into A549 cells. […] CD4 T cells are modified to express CER104 or CER117 and labeled with CELLTRACE Violet. CER117 has a polypeptide sequence set forth in SEQ ID NO:144 and comprises a Tim4 binding domain, a Tim4 transmembrane domain, and an engulfment signaling domain comprising a primary engulfment signaling domain comprising a TLR8 signaling domain and a secondary engulfment signaling domain comprising a TRAF6 signaling domain. The ALK+A549 cells were then co-cultured with CER104- or CER117-expressing CD4+ T cells or Mock-transduced (vector only) T cells for 12 hours and images were obtained by fluorescent microscopy at 40× magnification (FIGS. 62A-E). White arrows indicate exemplary phagocytic events (pH rodo red cell targets within CELLTRACE Violet labeled CD4+ T cells).\nCER123- and CER126-transduced CD4+ and CD8+ T cells were labeled with CELLTRACE Violet and co-cultured with the A549 ALK-positive cells. Co-cultured cells were imaged by fluorescent microscopy at 63× magnification after 12 hours (FIGS. 63A-F). White arrows indicate exemplary phagocytic events (pHrodo red targets within CELLTRACE Violet-labeled CD4 T cells).\nPhagocytosis of Alectinib-treated ALK+A549 cells by CER-expressing T cells was also quantified. […] Bar graph in FIG. 64A represents quantification of percentage phagocytosis calculated as ((number of phagocytic target events)/(total number of effector cells))*100. Events were calculated from fluorescent 3×3 stitched images at 40×resolution after 12 hours of co-culture. Bar graph in FIG. 64B represents quantification of adjusted phagocytic index calculated as (median area ratio of target events in effector cells*phagocytosis). Events calculated from fluorescent 3×3 stitched images at 40×resolution after 12 hours of co-culture.\nCER21−, CER27−, CER30−, CER108−, CER110−, CER112−, CER120−, CER123−, CER124−, CER126−, CER127−, or CER104-transduced CD4+ T cells were co-cultured with Alectinib-treated A549 cells at a 1:1 ratio for 12 hours. Phagocytic events were calculated from 3×3 stitched fluorescent microscopy images at 40X resolution. […] Images were obtained after 12 hours of co-culture. Yellow triangles indicate exemplary phagocytic events (pHrodo red targets within CELLTRACE violet labeled CD4+ T cells).\nA time course study of phagocytic uptake of tumor cells by CER-transduced T cells was performed. CD4+ T cells were transduced with a lentiviral vector comprising CER122 nucleic acid. Mock-transduced (vector only) CD4+ T cells were used as control. CER122-transduced T cells were labeled with CELLTRACE violet and co-cultured with pHrodo red labeled A549 ALK+ lung adenocarcinoma cells. Fluorescent microscopy images were obtained at 4, 8, and 16 hours co-culture (FIG. 72C), and % phagocytosis (FIG. 72A) and phagocytic index (FIG. 72B) were calculated."}, "[2]": {"system": "SCC152 cells", "test": "Magnitude breadth of phagocytosis by CER-transduced CD4+ T cells", "assay_type": "cell-based, human", "details": "8 hours co-culture with CD8/E7 TCR T cells and SCC152 cells", "method": "Various CER-modified CD4+ T cells were also evaluated for breadth of response to determine whether a particular CER confers a broad phagocytic response of low magnitude (e.g., 10% engulfment in 90% of cells) or a less frequent but strong phagocytic response (e.g., 90% engulfment in 10% of cells) in the host cells. CD8+ T cells were transduced with HPV16 E7 specific TCR as described in Example 5. CD4+ T cells were transduced with lentiviral vectors comprising a CER21, CER27, CER104, CER116, or CER117 nucleic acid. Mock-transduced (vector alone) CD4+ T cell were used as control. CD4+/CER+ and CD8+/E7 TCR+ T cells were stained with CELLTRACE violet. […] HPV16 E7 TCR transduced CD8+ T cells and selected CER transduced CD4+ T cells were mixed at a 1:1 ratio and co-cultured with SCC152 cells at a 1:1 ratio for 8 hours. Phagocytosis of target SCC152 cells by CER-transduced CD4+ T cells was analyzed by fluorescence microscopy. […] The horizontal axis represents the % area of CER-transduced CD4+ T cells having engulfment or % area of […]. This measure was rarely above 40% across CER types tested. The vertical axis represents the proportion of CER-transduced CD4+ T cells that were phagocytic. For CER104, about 20% of CER104-transduced CD4+ T cells have more than 10% engulfment. For CER117-transduced CD4+ T cells, less than 10% have more than 10% engulfment."}, "[3]": {"system": "CER-transduced CD4+ T cells", "test": "Mass cytometry (CyTOF) with viSNE marker analysis of CER-transduced CD4+ T cells", "assay_type": "cell-based, human", "details": "CD4+ T cells after co-culture with E7 TCR CD8+ T cells and SCC152 cells", "excerpt": "CD4+ T cells were transduced with lentiviral vector comprising CER104, CER116, or CER117 nucleic acid. CER104 (SEQ ID NO:133) comprises a Tim4 binding domain, Tim4 transmembrane domain, and an engulfment signaling domain comprising a primary engulfment signaling domain comprising a TLR8 signaling domain and a secondary engulfment signaling domain comprising a DAP12 signaling domain. CER116 (SEQ ID NO:143) comprises a Tim4 binding domain, Tim4 transmembrane domain, and an engulfment signaling domain comprising a primary engulfment signaling domain comprising a TRAF6 signaling domain and a secondary engulfment signaling domain comprising a TLR8 signaling domain. CER117 (SEQ ID NO:144) comprises a Tim4 binding domain, Tim4 transmembrane domain, and an engulfment signaling domain comprising a primary engulfment signaling domain comprising a TLR8 signaling domain and a secondary engulfment signaling domain comprising a TRAF6 signaling domain. CER-transduced CD4+ T cells were co-cultured with E7 TCR-transduced CD8+ T cells and HPV+SCC152 target cells and interrogated by mass cytometry (CyTOF) with viSNE for visualization of high dimensional single cell data (FIGS. 82-84). Intact CER-transduced CD4+ T cells are shown in plots displaying tSNE1 (horizontal) and tSNE2 (vertical) axes. 27 intracellular markers were used for the viSNE analysis. Each dot represents a single cell. […] Red represents high expression and blue represents low expression for each marker. Populations of CD4^+ T cells were generated using a clustering algorithm from all 27 markers and overlaid onto the viSNE map. […] Populations of CD4^+ T cells were generated using a clustering algorithm from all 18 markers and overlaid onto the viSNE map (FIG. 83A). […] Color plots by 18 intracellular markers (CD28, CCR7, CD45RA, PD1, CD127, Perforin, CD49d, CD85j, CD38, CD27, Granzyme B, CD57, CD25, CD69, CD154, CD56, HLA-DR, and TCRγδ) show the phenotype across viSNE ‘islands’ (FIG. 83B). Red represents high expression and blue represents low expression for each marker. Highlighted region with arrow indicates cells expressing T cell activation marker CD69. Populations of CD4^+ T cells were generated using a clustering algorithm from 18 intracellular markers (CD28, CCR7, CD45RA, PD1, CD127, Perforin, CD49d, CD85j, CD38, CD27, Granzyme B, CD57, CD25, CD69, CD154, CD56, HLA-DR, and TCRγ6) and overlaid onto the viSNE map. […] Color plots by the 18 intracellular markers show the phenotype across viSNE ‘islands’ (FIG. 84B). Red represents high expression and blue represents low expression for each marker. Highlighted region with arrow indicates cells expressing the naïve T cell marker CD45RA."}}, "data": [{"molecule": "B1", "values": [{"measurement": "phagocytosis of A549 cells", "setting": "[1]; 1 μM Alectinib", "result": "phagocytosed A549 cells"}, {"measurement": "phagocytosis of A549 cells", "setting": "[1]; 1 μM Crizotinib", "result": "phagocytosed A549 cells"}, {"measurement": "proportion of CER-transduced CD4+ T cells that have more than 10% engulfment", "setting": "[2]", "result": "less than 10%"}, {"measurement": "viSNE islands expressing intracellular marker IFNγ", "setting": "[3]", "result": "enrichment of islands expressing the intracellular marker IFNγ"}]}]}
